# In US20240209083A1:
# What was measured:
# [1] = biological target: human TIM3 (isoform 1), membrane bound (human) (UniProt Q8TDQ0); test: flow cytometry, lung cancer TILs, CD4+ cells (upper panel), isotype staining
# [2] = biological target: human TIM3 (isoform 1), membrane bound (human) (UniProt Q8TDQ0); test: flow cytometry, lung cancer TILs, CD8+ cells (lower panel), isotype staining
# [3] = biological target: mouse TIM3 (mouse) (UniProt Q8VIM0); test: binding to activated mouse T cells (method not given)
# Chain of mouse TIM3 (mouse) (Q8VIM0 20-281): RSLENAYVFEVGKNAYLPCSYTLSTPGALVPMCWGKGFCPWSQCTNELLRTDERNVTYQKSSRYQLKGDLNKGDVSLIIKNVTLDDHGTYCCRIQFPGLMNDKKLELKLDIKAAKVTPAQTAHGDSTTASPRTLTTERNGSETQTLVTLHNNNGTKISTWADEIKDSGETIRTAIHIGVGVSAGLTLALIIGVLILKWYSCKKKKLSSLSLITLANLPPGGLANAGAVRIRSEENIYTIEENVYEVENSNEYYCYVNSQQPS
"% of cells in the quadrant PE isotype positive, APC isotype negative [1] [%]","% of cells in the quadrant PE isotype positive, APC isotype negative [2] [%]",EC50 [3] [nM],fold weaker EC50 than TIM3.18 binding to human TIM-3 [3] [fold],Substance
2.94,3.09,–,–,Isotype (Comp-PE-A :: Isotype) (antibody)
–,–,1.7,17,rat anti-mouse TIM-3 antibody RMT3-23
